Measurements taken from paper PMC6614557 (Nature medicine, 2018).
Blank lines part the entries; values can stand above or below the molecule they belong to.

Columns and labels:
[1] = target: T1, ONECUT2 (OC2), OC2-HOX domain (Homo sapiens, UniProt O95948); assay: SPR, His-tagged OC2-HOX immobilized, […] model fit; assay type: binding
T1 sequence (O95948 330-485): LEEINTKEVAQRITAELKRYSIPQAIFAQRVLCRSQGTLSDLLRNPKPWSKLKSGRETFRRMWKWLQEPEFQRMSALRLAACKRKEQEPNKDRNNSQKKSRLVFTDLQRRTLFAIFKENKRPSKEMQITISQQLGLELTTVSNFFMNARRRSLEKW

SEC = target: the molecule itself; assay: SEC
[2] = target: T2, OC2-HOX (ONECUT2 homeodomain construct) (Homo sapiens, UniProt O95948 330-485); assay: SPR
T2 sequence: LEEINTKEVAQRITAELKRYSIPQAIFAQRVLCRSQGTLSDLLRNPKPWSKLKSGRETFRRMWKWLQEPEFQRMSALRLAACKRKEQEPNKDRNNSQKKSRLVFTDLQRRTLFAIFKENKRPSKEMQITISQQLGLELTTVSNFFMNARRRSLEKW

- Kd [1]: 7.43 µM
Molecule: NC(CO)C(=O)N/N=C/c1ccc(O)c(O)c1O (racemic) [CSRM617, 1-{(E)-[(2,3,4-Trihydroxyphenyl)methylidene]hydrazino}−2-amino-3-hydroxy-1-propanone]

B1: Recombinant OC2-HOX domain (L330-W485) of OC2 (domain or fragment, human, UniProt O95948 330-485, looked up)
chain: LEEINTKEVAQRITAELKRYSIPQAIFAQRVLCRSQGTLSDLLRNPKPWSKLKSGRETFRRMWKWLQEPEFQRMSALRLAACKRKEQEPNKDRNNSQKKSRLVFTDLQRRTLFAIFKENKRPSKEMQITISQQLGLELTTVSNFFMNARRRSLEKW
- stoichiometry N (SEC): 2

B2: PEG10 promoter OC2 motif probe (dsDNA)
DNA 1: TAGATCGATTTGCA
DNA 2: TGCAAATCGATCTA
- Kd [2]: ~0.001 µM
